Laboratory results as given in article PMC2680549 (Nature structural & molecular biology, 2008).

Assays:
[1] = biological target: Hsc70 nucleotide binding domain (human Hsc70 1-381) (human, UniProt P11142 1-381); experiment: pull-down
AUC [2] = biological target: the molecule itself; experiment: AUC
AUC [3] = biological target: the molecule itself; experiment: AUC; remark: listed apart in the source

Sequence of Hsc70 nucleotide binding domain (human Hsc70 1-381) (P11142 1-381): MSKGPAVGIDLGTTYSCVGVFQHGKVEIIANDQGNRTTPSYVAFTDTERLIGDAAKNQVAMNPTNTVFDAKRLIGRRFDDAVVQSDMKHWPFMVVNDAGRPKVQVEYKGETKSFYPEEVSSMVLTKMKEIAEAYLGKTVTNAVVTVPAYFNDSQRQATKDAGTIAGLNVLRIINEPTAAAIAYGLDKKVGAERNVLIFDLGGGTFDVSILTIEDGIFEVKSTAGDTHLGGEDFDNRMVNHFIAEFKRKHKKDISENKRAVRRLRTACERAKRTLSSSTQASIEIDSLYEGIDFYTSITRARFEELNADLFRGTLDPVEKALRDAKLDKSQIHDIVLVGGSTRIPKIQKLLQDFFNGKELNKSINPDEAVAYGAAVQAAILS

B1: GST-fused full-length human Bag2, wild type (natural protein, UniProt O95816 1-211, looked up)
chain: MAQAKINAKANEGRFCRSSSMADRSSRLLESLDQLELRVEALREAATAVEQEKEILLEMIHSIQNSQDMRQISDGEREELNLTANRLMGRTLTVEVSVETIRNPQQQESLKHATRIIDEVVNKFLDDLGNAKSHLMSLYSACSSEVPHGPVDQKFQSIVIGCALEDQKKIKRRLETLLRNIENSDKAIKLLEHSKGAGSKTLQQNAESRFN
B1: binds [1].

B2: Mouse Bag2-BNB (murine Bag2 107-189) (domain or fragment, UniProt Q91YN9 107-189, looked up)
chain: EESLKHATRIIDEVVSKFLDDLGNAKSHLMSLYSACSSEVPPGPVDQKFQSIVIGCALEDQKKIKRRLETLLRNIDNSDKAIK
In the case of B2, the Kd (AUC [2]) is reported as 4.5 ± 2 µM.

B3: Near full-length murine Bag2 (Bag2 21-210) (domain or fragment, mouse, UniProt Q91YN9 21-210, looked up)
chain: MADRSSRLLESLDQLELRVEALRDAATAVEQEKEILLEMIHSIQNSQDMRQISDGEREELNLTANRLMGRTLTVEVSVETIRNPQQEESLKHATRIIDEVVSKFLDDLGNAKSHLMSLYSACSSEVPPGPVDQKFQSIVIGCALEDQKKIKRRLETLLRNIDNSDKAIKLLEHAKGAGSKSLQNTDGKFN
B3 was tested, and the “stoichiometry N” value (AUC [3]) was no less than 4.
